In one experiment the test system is WSU-DLCL2. Nature of the experiment: In vitro cell proliferation assay, ADC killing of WSU-DLCL2 cells. The experiment is classed as cell-based, human.
The next experiment relates to BJAB. Kind of experiment: In vitro cell proliferation assay, ADC killing of BJAB cells. The experiment is classed as cell-based, human.
The test system of another experiment is Jurkat. Kind of experiment: In vitro cell proliferation assay, ADC killing of Jurkat cells. The experiment is classed as cell-based.
A further experiment relates to NCI-H441. Kind of experiment: EdU Prolif assay, NCI-H441. The experiment is classed as cell-based. To be noted: NCI-H441 cells.

B1: ADC1-1: Anti-Napi2b 10H1.11.4B LC K149C antibody conjugated with the Example 1 linker-drug MC-Sq-Cit-PAB Dolastatin 10 (conjugate)
VH: EVQLVESGGGLVQPGGSLRLSCAASGFSFSDFAMSWVRQAPGKGLEWVATIGRVAFHTYYPDSMKGRFTISRDNSKNTLYLQMNSLRAEDTAVYYCARHRGFDVGHFDFWGQGTLVTVSS
VL: DIQMTQSPSSLSASVGDRVTITCRSSETLVHSSGNTYLEWYQQKPGKAPKLLIYRVSNRFSGVPSRFSGSGSGTDFTLTISSLQPEDFATYYCFQGSFNPLTFGQGTKVEIKR
In general, IC50 refers to the point on the concentration scale where inhibition reaches its midpoint. Read a high IC50 as weaker potency. As for B1, in the experiment on WSU-DLCL2, it took 44.2 nM to reach half-maximal inhibition (IC50) and the “WSU-DLCL2 IC50” value is 6.63 µg/mL. Moreover, in the experiment with BJAB, the “BJAB IC50” value is >20 µg/mL and the IC50 is > 133 nM. For the same molecule, in the experiment with Jurkat, half-maximal inhibition (IC50) was put at 73.6 nM and the “Jurkat IC50” value is 11.04 µg/mL. In the experiment on NCI-H441, the IC50 stood at 95.4 nM and the “NCI-H441 IC50” value came out at 14.31 µg/mL.

These data come from patent publication US11104673B2, “Quaternary amine compounds and antibody-drug conjugates thereof” (priority 2014, dated 2021).
